Laboratory results from PMC11655445.

B1: PTTG1IP (pituitary tumor-transforming gene 1 protein-interacting protein): 2NQ (protein)
parent chain: MAPGVARGPTPYWRLRLGGAALLLLLIPVAAAQEPPGAACSQNTNKTCEECLKNVSCLWCNTNKACLDYPVTSVLPPASLCKLSSARWGVCWVNFEALIITMSVVGGTLLLGIAICCCCCCRRKRSRKPDRSEEKAMREREERRIRQEERRAEMKTRHDEIRKKYGLFKEENPYARFENN
B2: PTTG1IP (pituitary tumor-transforming gene 1 protein-interacting protein): N54Q (protein)
parent chain: B1 parent chain
B3: PTTG1IP (pituitary tumor-transforming gene 1 protein-interacting protein): N45Q (protein)
parent chain: B1 parent chain

How the values were obtained:
Conditions in all cases: glycan lost; control: WT PTTG1IP-GFP
[1] = single-vesicle analysis, GFP+ EVs in conditioned media
[2] = anti-GFP Western blot of isolated EVs
[3] = median fluorescence intensity of GFP+ EVs
[4] = anti-GFP Western blot of cell lysates

Protein | localisation_or_trafficking, other: % GFP+ vesicles [1] | localisation_or_trafficking [2] | localisation or trafficking, percent of wt [3] [%] | expression_or_secretion [4]
B1 | decreases, 27.2 vs 84 | decreases | 48 | no change
B2 | decreases, 45.7 vs 84 | – | – | no change
B3 | decreases, 43.6 vs 84 | – | – | no change
